The test concerns the target T1, CD20 on human B-cell lines (JOK-1, Raji, Ramos) (human, UniProt P11836 1-297).
T1 sequence (looked up): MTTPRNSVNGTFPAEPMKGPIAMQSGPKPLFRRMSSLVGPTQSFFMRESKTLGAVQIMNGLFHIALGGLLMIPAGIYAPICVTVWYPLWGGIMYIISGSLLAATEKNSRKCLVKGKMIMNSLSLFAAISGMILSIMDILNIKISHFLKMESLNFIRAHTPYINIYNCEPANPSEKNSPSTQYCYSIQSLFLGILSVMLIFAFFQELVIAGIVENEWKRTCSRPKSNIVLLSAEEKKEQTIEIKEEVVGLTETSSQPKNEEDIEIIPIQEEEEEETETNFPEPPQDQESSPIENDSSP
Description: cell-based or functional assay.

The values that follow come from patent US20240336696A1 (PXRADIA MAB TECHNOLOGIES, published 2024).

B1: chRituximab-HD (chimeric HD antibody identical to chRituximab except for the addition of the HD peptide rs-T15) (antibody, human IgG1, kappa)
heavy: not shown
light: QIVLSQSPAILSASPGEKVTMTCRASSSVSYIHWFQQKPGSSPKPWIYATSNLASGVPVRFSGSGSGTSYSLTISRVEAEDAATYYCQQWTSNPPTFGGGTKLEIKRTVAAPSVFIFPPSDEQLKSGTASVVCLLNNFYPREAKVQWKVDNALQSGNSQESVTEQDSKDSTYSLSSTLTLSKADYEKHKVYACEVTHQGLSSPVTKSFNRGEC
Take B1: the “percent of apoptotic cells against chRituximab, Raji cells, 5 µg/mL” value is 2.5 fold.
